From US20120082680A1 (Merck Sharp & Dohme, published 2012)
Read-outs that look alike come from different tables or passages of the source. One block for each binder: values may come before it.

Key:
Assay in all cases: cell-based or functional assay
[1] = target: T1, V5-, His-tagged recombinant human PCSK9 protein (human, UniProt Q8NBP7 31-692)
[2] = target: T1, V5-, His-tagged recombinant human PCSK9 …; remark: listed apart in the source
[3] = target: T1, V5-, His-tagged recombinant human PCSK9 …; remark: listed apart in the source
[4] = target: T1, V5-, His-tagged recombinant human PCSK9 …; remark: listed apart in the source
[5] = target: T1, V5-, His-tagged recombinant human PCSK9 …; remark: listed apart in the source

T1 sequence (Q8NBP7 31-692 limits assumed): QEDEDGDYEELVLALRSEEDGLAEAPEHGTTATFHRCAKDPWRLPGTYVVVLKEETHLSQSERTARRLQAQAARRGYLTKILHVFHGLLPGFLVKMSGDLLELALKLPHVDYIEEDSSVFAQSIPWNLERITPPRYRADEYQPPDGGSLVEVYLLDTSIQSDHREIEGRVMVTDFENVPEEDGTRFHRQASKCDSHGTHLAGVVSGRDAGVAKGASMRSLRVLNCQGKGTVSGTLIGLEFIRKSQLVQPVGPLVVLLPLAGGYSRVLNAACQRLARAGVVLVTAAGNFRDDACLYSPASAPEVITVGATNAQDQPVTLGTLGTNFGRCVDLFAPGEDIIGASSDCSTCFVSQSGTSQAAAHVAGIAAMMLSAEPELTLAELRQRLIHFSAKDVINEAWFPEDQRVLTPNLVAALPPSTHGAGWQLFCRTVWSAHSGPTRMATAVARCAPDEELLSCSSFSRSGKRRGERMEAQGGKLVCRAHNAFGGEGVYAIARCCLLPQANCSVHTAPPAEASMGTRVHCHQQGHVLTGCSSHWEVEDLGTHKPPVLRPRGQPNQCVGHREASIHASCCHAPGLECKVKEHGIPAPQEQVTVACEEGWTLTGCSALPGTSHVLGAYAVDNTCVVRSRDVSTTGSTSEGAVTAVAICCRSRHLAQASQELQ

IC50 for reversing the PCSK9-dependent loss of cellular diI-LDL uptake (Exopolar assay; Fab titrated against PCSK9 fixed at 25 µg/ml) [1]: 1250 nM
B1: 3BX5C01 (Fab, V domains shown)
VH: QVQLVQSGAEVKKPGESLKISCKGSGYSFTSYGISWVRQMPGKGLEWMGMIDPSDSFTTYSPSFQGQVTISADKSISTAYLQWSSLKASDTAMYYCARGYYFTYALQPMDHWGQGTLVTVSS
VL: DIELTQPPSVSVAPGQTARISCSGDNLRDYIVHWYQQKPGQAPVLVIYDDSNRPSGIPERFSGSNSGNTATLTISGTQAEDEADYYCGFDNGGDIDVFGGGTKLTVLG

IC50 for reversing the PCSK9-dependent loss of cellular diI-LDL uptake (Exopolar assay; Fab titrated against PCSK9 fixed at 25 µg/ml) [2]: 267 nM
B2: 1CX1G08 (Fab, V domains shown)
VH: QVQLVESGGGLVQPGGSLRLSCAASGFTFSDYWVSWVRQAPGKGLEWVSFISYDGSSTYYADSVKGRFTISRDNSKNTLYLQMNSLRAEDTAVYYCARTYFEGVDVWGQGTLVTVSS
VL: DIELTQPPSVSVAPGQTARISCSGDNIGTYYVHWYQQKPGQAPVLVIYDDSNRPSGIPERFSGSNSGNTATLTISGTQAEDEADYYCGTWDNTSFNLVFGGGTKLTVLG

IC50 for reversing the PCSK9-dependent loss of cellular diI-LDL uptake (Exopolar assay; Fab titrated against PCSK9 fixed at 25 µg/ml) [3]: 127 nM
B3: 3CX4B08 (Fab, V domains shown)
VH: QVQLVESGGGLVQPGGSLRLSCAASGFTFSNYTMNWVRQAPGKGLEWVSFISSSSSETYYADSVKGRFTISRDNSKNTLYLQMNSLRAEDTAVYYCARGYGDMVDLWGQGTLVTVSS
VL: DIELTQPPSVSVAPGQTARISCSGDSIPTYYVAWYQQKPGQAPVLVIYSDTDRPSGIPERFSGSNSGNTATLTISGTQAEDEADYYCQSFDNHGYHVFGGGTKLTVLG

IC50 for reversing the PCSK9-dependent loss of cellular diI-LDL uptake (Exopolar assay; Fab titrated against PCSK9 fixed at 25 µg/ml) [4]: 107 nM
B4: 3CX2A06 (Fab, V domains shown)
VH: QVQLVQSGAEVKKPGESLKISCKGSGYSFSNFWIAWVRQMPGKGLEWMGIIDPSDSWTRYSPSFQGQVTISADKSISTAYLQWSSLKASDTAMYYCARGDGQDFDNWGQGTLVTVSS
VL: DIQMTQSPSSLSASVGDRVTITCRASQNINSYLNWYQQKPGKAPKLLIYAASSLQSGVPSRFSGSGSGTDFTLTISSLQPEDFAVYYCLQNYDLPNTFGQGTKVEIKR

IC50 for reversing the PCSK9-dependent loss of cellular diI-LDL uptake (Exopolar assay; Fab titrated against PCSK9 fixed at 25 µg/ml) [5]: 269 nM
B5: 3CX3D02 (Fab, V domains shown)
VH: QVQLVQSGAEVKKPGESLKISCKGSGYSFTNSWIGWVRQMPGKGLEWMGIIYPSDSYTIYSPSFQGQVTISADKSISTAYLQWSSLKASDTAMYYCARGGGYYYALMDVWAQGTLVTVSS
VL: DIQMTQSPSSLSASVGDRVTITCRASQTISTWLNWYQQKPGKAPKLLIYAASSLQSGVPSRFSGSGSGTDFTLTISSLQPEDFATYYCLQDSSLPLTFGQGTKVEIKR
